B1: R2R3_2Q (peptide, UniProt P10636-8 294-311, looked up)
peptide: KDNIQHVPGGGSVQIVYK
B2: R1R3_12Q (peptide, UniProt P10636-8 263-274, looked up)
peptide: TENLQHQPGGGQVQIVYK
B3: R1R3_13Q (peptide, UniProt P10636-8 263-274, looked up)
peptide: TENLQHQPGGGKVQIVYQ
B4: R1R3_23Q (peptide, UniProt P10636-8 263-274, looked up)
peptide: TENLKHQPGGGQVQIVYQ

Target: the molecule itself
Assay: ThT fluorescence aggregation + negative-stain TEM

Binding result, binds:
B1
B2
B3
B4

— publication PMC10527703 (Structure (London, England : 1993), 2023)
